Measured values published in patent US20200023071A1 (INNATE PHARMA, published 2020).

T1: human MICA endogenously expressed on the surface of HCT116 colon carcinoma cells (human, UniProt Q29983 24-383)
T1 sequence (looked up): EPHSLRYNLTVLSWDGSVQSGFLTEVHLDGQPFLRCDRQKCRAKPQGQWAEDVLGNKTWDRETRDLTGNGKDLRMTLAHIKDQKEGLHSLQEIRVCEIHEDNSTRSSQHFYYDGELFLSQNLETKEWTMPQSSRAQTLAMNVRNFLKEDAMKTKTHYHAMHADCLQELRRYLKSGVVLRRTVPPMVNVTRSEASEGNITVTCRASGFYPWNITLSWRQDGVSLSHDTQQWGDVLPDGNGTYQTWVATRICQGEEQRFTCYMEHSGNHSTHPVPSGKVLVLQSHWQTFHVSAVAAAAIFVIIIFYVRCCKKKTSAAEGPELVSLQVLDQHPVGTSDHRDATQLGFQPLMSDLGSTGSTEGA

B1: chimeric antibody 6E4 (human IgG1 constant regions) conjugated to a PBD dimer, DAR about 2 (antibody, V domains shown)
VH: EVQLVESGGALVKPGGSLKLSCAASGFTFSYYAMSWVRQTPEKRLEWVATISRGGNYIYYTDSVKGRFTISRDNAKNTLYLQMTSLRSEDTAMFYCASISDYDGAWLAYWGQGTLVTV
VL: DVLMTQTPLSLPVSLGDQASISCRSSQSIIHTNGNTYLEWYLQKPGQSPKLLIYKISNRFSGVPDRFSGSGSGTDFTLKISRVEAEDLGVYYCFQGSHVPWTFGGGTKLEIK
modifications: PBD dimer via NH2-PEG-N3 / DBCO-val-ala linker on Q295 (Kabat EU numbering) of each heavy chain constant region
B2: chimeric antibody 18E8 (human IgG1 constant regions) conjugated to a PBD dimer, DAR about 2 (antibody, V domains shown)
VH: DVQLQESGPDLVNPSQSLSLICTVTGYSITSDYSWHWIRQFPGNKLEWMGNIHYSGRINYNPSLRSRISITRDTSKNQFFLQLISVTTEDTATYYCATRRTFGNFEDYWGQGTTLTVSS
VL: QIVLSQSPATLSVSPGEKVTMTCRSSSSVNYMHWYQQKPGSSPKPWIYATSTLASGVPARFSGSGSGTSYSLTISRVEAEDAATYYCQQWSSNPLTFGAGTKLELK
modifications: PBD dimer via NH2-PEG-N3 / DBCO-val-ala linker on Q295 (Kabat EU numbering) of each heavy chain constant region
B3: chimeric antibody 9C10 (human IgG1 constant regions) conjugated to a PBD dimer, DAR about 2 (antibody, V domains shown)
VH: QVQLQQPGAELVRPGTSVNLSCKASGYSFTRYWMNWVKQRPGQGLEWIGMIHPSDSETRLNQKFKDKATLTVDKSSSTAYMQLSSPTSEDSAVYYCGYGNFFYVMDYWGQGTSVTVSS
VL: DILLTQSPAILSVSPGERVSFSCRASQSIGTSIHWYQQRTNGSPRLLIKFASESISGIPSRFSGSGSGTDFTLNINSVESEDIADYYCQQSNFWPFTFGSGTKLEVK
modifications: PBD dimer via NH2-PEG-N3 / DBCO-val-ala linker on Q295 (Kabat EU numbering) of each heavy chain constant region
B4: chimeric antibody 19E9 (human IgG1 constant regions) conjugated to a PBD dimer, DAR about 2 (antibody, V domains shown)
VH: DVQLQESGPGLVKPSQSLSLTCTVTGYSITSDYAWNWIRQFPGNKLEWMGFVSYSGTTKYNPSLKSRISITRDTSENQFFLQLNSVTSEDTATYYCARGYGFDYWGQGTTLTVSS
VL: EIVLTQSPTTMAASPGEKITITCSATSSISSIYFHWYQQRPGFSPKLLIYRTSNLASGVPARFSGSGSGTSYSLTIGTMEAEDVATYYCQQGTTIPFTFGSGTKLEIK
modifications: PBD dimer via NH2-PEG-N3 / DBCO-val-ala linker on Q295 (Kabat EU numbering) of each heavy chain constant region

Target: T1, human MICA endogenously expressed on …
Experiment: cell-based or functional assay

| Binder | EC50 (also referred to as IC50) of cytotoxicity towards HCT116 cells, cell confluence over one week (IncuCyte) [ng/mL] |
| --- | --- |
| B1 | 2.25 |
| B2 | 3.77 |
| B3 | 7.77 |
| B4 | 0.475 |
